Experimental data: patent US20160347827A1
Positions count from the first letter of the chain named.

B1: humanized 5B3.1 IgG1 (antibody, V domains shown)
VH: EVQLVESGGGLVKPGGSLRLSCAASGFTFSSYSMSWVRQAPGKGLEWVAMISSGGSYSYYADSVKGRFTISRDNSKNTLYLQMNSLRAEDTAVYYCARQGDYAWFDIWGQGTLVTVS
VL: DIQMTQSPSSLSASVGDRVTITCLASQTIGTWLAWYQQKPGKAPKLLIYAATSLADGVPSRFSGSGSGTDFTLTISSLQPEDFATYYCQQFYSTPFTFGGGTKLEIKR
B2: humanized 5B3 IgG1 (antibody, V domains shown)
VH: B1 VH with S33D, A61P, D106A, I107Y
VL: B1 VL
B3: murine 5B3 monoclonal antibody (antibody, V domains shown)
VH: EVQLVESGGGLVKPGGSLKLSCAASGFTFSSYDMSWVRQTPEKRLEWVAMISSGGSYSYYPDSVKGRFTISRDNAKNTLYLQMSSLRSEDTAMYYCARQGDYAWFAYWGQGTLVTVS
VL: DIQMTQSPASQSASLGESVTITCLASQTIGTWLAWYQQKPGKSPQLLIYAATSLADGVPSRFSGSGSGTKFSFKISSLQAEDFVSYYCQQFYSTPFTFGGGTKLEIKR

Key:
[1] = biological target: soluble F glycoprotein (sF); assay: SPR, Biacore 3000, mAb captured by anti-Fc on CM5, sF in solution
[2] = biological target: full-length wild-type HeV F glycoprotein (Hendra virus) (UniProt O89342); assay: cell-based or functional assay
Chain of UniProt O89342 (O89342 27-546): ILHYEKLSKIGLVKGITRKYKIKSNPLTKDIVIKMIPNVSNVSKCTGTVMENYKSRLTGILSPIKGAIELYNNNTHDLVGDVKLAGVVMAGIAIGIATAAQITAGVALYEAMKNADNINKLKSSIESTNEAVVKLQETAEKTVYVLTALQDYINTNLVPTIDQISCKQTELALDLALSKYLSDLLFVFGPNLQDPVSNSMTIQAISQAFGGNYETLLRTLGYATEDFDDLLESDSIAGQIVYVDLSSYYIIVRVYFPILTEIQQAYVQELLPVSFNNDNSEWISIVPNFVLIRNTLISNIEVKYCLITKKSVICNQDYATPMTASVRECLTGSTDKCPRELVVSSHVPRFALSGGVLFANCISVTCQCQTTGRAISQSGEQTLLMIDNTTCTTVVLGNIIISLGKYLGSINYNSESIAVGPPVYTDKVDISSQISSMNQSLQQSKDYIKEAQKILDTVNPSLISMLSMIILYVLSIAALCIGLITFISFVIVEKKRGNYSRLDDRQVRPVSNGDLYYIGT

[3] = biological target: full-length wild-type NiV F glycoprotein (Nipah virus) (UniProt Q9IH63); assay: cell-based or functional assay
Chain of UniProt Q9IH63 (Q9IH63 27-546): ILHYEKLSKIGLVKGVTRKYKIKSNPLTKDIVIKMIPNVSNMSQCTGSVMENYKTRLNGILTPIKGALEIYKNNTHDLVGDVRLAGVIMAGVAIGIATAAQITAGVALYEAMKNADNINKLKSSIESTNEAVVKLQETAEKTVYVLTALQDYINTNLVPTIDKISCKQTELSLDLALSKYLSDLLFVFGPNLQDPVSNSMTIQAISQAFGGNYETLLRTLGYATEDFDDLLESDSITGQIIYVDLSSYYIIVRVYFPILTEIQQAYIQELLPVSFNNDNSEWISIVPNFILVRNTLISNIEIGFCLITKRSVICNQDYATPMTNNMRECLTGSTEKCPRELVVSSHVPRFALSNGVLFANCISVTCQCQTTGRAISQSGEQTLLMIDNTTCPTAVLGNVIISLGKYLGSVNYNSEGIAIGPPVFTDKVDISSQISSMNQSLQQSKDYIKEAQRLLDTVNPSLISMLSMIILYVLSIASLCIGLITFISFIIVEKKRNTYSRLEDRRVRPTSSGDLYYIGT

Binder | Ka [1] [M⁻¹] | Kd [1] [nM] | koff [1] [s⁻¹] | kon [1] [M⁻¹ s⁻¹] | virus neutralization titer, HeV 100 TCID50 (cpe fully inhibited, Vero cells) [2] [µg/mL] | virus neutralization titer, HeV 200 TCID50 (cpe fully inhibited, Vero cells) [2] [µg/mL] | virus neutralization titer, NiV 100 TCID50 (cpe fully inhibited, Vero cells) [3] [µg/mL] | virus neutralization titer, NiV 200 TCID50 (cpe fully inhibited, Vero cells) [3] [µg/mL]
B1 | 1.6e+07 | 62 | 0.0017 | 27000 | > 100 | > 100 | > 100 | > 100
B2 | 7.5e+07 | 13 | 0.00033 | 25000 | 0.78 | 12.5 | 1.56 | 3.12
B3 | 3.7e+08 | 2.7 | – | – | – | – | – | –
